Source: US20110166062A1
Where no end group is shown, it is not given here. [ ]: non-standard residue; d: D form. The star is where a group is joined. Palmitoyl = CCCCCCCCCCCCCCCC(=O)*; Aib = CC(C)(N)C(=O)O

Assays:
Experiment in all cases: cell-based or functional assay
GIP receptor, P48546 = molecular target: T1, GIP receptor, P48546
T1 chain: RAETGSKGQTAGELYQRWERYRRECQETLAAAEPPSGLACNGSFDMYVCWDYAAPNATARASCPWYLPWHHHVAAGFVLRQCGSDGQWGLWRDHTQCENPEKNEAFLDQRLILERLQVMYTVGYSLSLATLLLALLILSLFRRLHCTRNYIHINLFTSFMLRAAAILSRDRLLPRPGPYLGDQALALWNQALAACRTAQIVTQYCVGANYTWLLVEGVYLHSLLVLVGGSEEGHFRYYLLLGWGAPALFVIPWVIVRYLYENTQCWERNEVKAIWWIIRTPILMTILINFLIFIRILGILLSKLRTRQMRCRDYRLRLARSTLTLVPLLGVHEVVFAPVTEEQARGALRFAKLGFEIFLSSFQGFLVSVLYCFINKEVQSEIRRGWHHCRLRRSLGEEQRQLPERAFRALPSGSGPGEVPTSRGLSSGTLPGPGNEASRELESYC

GLP-1 receptor, P43220 = molecular target: T2, GLP-1 receptor, P43220
T2 chain: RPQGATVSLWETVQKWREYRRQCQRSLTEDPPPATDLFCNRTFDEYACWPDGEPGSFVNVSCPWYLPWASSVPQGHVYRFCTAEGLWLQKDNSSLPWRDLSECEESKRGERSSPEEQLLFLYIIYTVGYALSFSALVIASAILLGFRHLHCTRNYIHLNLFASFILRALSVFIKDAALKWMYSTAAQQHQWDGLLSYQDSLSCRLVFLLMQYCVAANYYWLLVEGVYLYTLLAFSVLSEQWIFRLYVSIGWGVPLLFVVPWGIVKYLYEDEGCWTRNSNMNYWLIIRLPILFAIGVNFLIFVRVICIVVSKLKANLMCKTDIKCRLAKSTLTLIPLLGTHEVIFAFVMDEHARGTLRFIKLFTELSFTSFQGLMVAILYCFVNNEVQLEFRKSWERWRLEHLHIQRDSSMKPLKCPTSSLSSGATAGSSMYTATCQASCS

[1] = molecular target: glucagon receptor, P47871
glucagon receptor, P47871, sequence (P47871 26-477 limits assumed): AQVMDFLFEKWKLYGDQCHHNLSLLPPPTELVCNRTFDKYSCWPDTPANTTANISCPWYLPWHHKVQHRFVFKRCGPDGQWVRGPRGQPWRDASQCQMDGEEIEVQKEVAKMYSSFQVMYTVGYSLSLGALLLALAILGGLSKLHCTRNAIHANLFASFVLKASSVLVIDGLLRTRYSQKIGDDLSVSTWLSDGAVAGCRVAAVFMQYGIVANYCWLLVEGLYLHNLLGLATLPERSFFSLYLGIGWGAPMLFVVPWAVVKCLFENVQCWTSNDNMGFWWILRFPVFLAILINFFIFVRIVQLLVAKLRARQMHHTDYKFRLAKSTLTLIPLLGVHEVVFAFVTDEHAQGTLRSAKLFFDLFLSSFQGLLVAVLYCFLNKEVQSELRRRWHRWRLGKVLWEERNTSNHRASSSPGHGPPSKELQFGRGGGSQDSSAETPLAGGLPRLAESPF

B1: mt-297 (peptide)
peptide: Y[Aib]QGTFTSDYSIYLDKQAA[Aib]EFVCWLMNGGPSSGAPPPSK(Palmitoyl)-NH2
modifications: N-terminus assumed
SMILES: CCCCCCCCCCCCCCCC(=O)NCCCC[C@H](NC(=O)[C@H](CO)NC(=O)[C@@H]1CCCN1C(=O)[C@@H]1CCCN1C(=O)[C@@H]1CCCN1C(=O)[C@H](C)NC(=O)CNC(=O)[C@H](CO)NC(=O)[C@H](CO)NC(=O)[C@@H]1CCCN1C(=O)CNC(=O)CNC(=O)[C@H](CC(N)=O)NC(=O)[C@H](CCSC)NC(=O)[C@H](CC(C)C)NC(=O)[C@H](Cc1c[nH]c2ccccc12)NC(=O)[C@H](CS)NC(=O)[C@@H](NC(=O)[C@H](Cc1ccccc1)NC(=O)[C@H](CCC(=O)O)NC(=O)C(C)(C)NC(=O)[C@H](C)NC(=O)[C@H](C)NC(=O)[C@H](CCC(N)=O)NC(=O)[C@H](CCCCN)NC(=O)[C@H](CC(=O)O)NC(=O)[C@H](CC(C)C)NC(=O)[C@H](Cc1ccc(O)cc1)NC(=O)[C@@H](NC(=O)[C@H](CO)NC(=O)[C@H](Cc1ccc(O)cc1)NC(=O)[C@H](CC(=O)O)NC(=O)[C@H](CO)NC(=O)[C@@H](NC(=O)[C@H](Cc1ccccc1)NC(=O)[C@@H](NC(=O)CNC(=O)[C@H](CCC(N)=O)NC(=O)C(C)(C)NC(=O)[C@@H](N)Cc1ccc(O)cc1)[C@@H](C)O)[C@@H](C)O)[C@@H](C)CC)C(C)C)C(N)=O
B1 gave an EC50 (GIP receptor, P48546) of 0.0168 nM, an EC50 (GLP-1 receptor, P43220) of 0.0129 nM and an EC50 [1] of 0.0132 nM.
